The sequences below were run on Escherichia coli TOP10 (assay: shrunken log2 fold change of peptide-encoding DNA abundance (4.5 h post-induction vs induction); higher = less antimicrobial activity (less host growth inhibition)). Settings: time post-induction: 4.5 h; library: site-saturation at positions 5, 18, 19, 20.
RRIRSRPPRLPRPRPRPMVVPRP was tested, and the “shrunken log2 fold change” value was 0.149.
With RRIRERPPRLPRPRPRPISGPRP the “shrunken log2 fold change” value was -0.564.
RRIRSRPPRLPRPRPRPLPHPRP was tested, and the “shrunken log2 fold change” value was 0.277.
RRIRYRPPRLPRPRPRPRSHPRP was tested, and the “shrunken log2 fold change” value was -0.267.
RRIRPRPPRLPRPRPRPKNMPRP was tested, and the “shrunken log2 fold change” value was -0.436.
With RRIRHRPPRLPRPRPRPKLQPRP the “shrunken log2 fold change” value was 0.0439.
RRIRYRPPRLPRPRPRPVYAPRP was tested, and the “shrunken log2 fold change” value was -0.683.
With RRIRCRPPRLPRPRPRPAGQPRP the “shrunken log2 fold change” value was -0.109.
RRIRHRPPRLPRPRPRPNLMPRP was tested, and the “shrunken log2 fold change” value was 0.0972.
In the case of RRIRFRPPRLPRPRPRPARYPRP, the “shrunken log2 fold change” value is reported as 0.153.
In the case of RRIRARPPRLPRPRPRPYGEPRP, the “shrunken log2 fold change” value is reported as -0.168.
In the case of RRIRRRPPRLPRPRPRPRMPPRP, the “shrunken log2 fold change” value is reported as 0.381.
With RRIRNRPPRLPRPRPRPNARPRP the “shrunken log2 fold change” value was 0.0522.
With RRIRTRPPRLPRPRPRPHAKPRP the “shrunken log2 fold change” value was 0.0187.
In the case of RRIRMRPPRLPRPRPRPDKQPRP, the “shrunken log2 fold change” value is reported as 0.0746.
With RRIRSRPPRLPRPRPRPQHLPRP the “shrunken log2 fold change” value was -0.372.
In the case of RRIRRRPPRLPRPRPRPCWLPRP, the “shrunken log2 fold change” value is reported as 0.202.
With RRIRRRPPRLPRPRPRPPRIPRP the “shrunken log2 fold change” value was 1.08.
For RRIRIRPPRLPRPRPRPYVTPRP, the “shrunken log2 fold change” value was -0.526.
For RRIRWRPPRLPRPRPRPPQLPRP, the “shrunken log2 fold change” value was 0.462.
In the case of RRIRIRPPRLPRPRPRPNPEPRP, the “shrunken log2 fold change” value is reported as -0.0503.
RRIRMRPPRLPRPRPRPCLNPRP was tested, and the “shrunken log2 fold change” value was -0.0184.
In the case of RRIRGRPPRLPRPRPRPDINPRP, the “shrunken log2 fold change” value is reported as 1.68.
In the case of RRIRLRPPRLPRPRPRPPKYPRP, the “shrunken log2 fold change” value is reported as -0.154.
RRIRTRPPRLPRPRPRPQPVPRP was tested, and the “shrunken log2 fold change” value was -0.0826.
RRIRWRPPRLPRPRPRPFDMPRP was tested, and the “shrunken log2 fold change” value was -0.105.
RRIRWRPPRLPRPRPRPEGYPRP was tested, and the “shrunken log2 fold change” value was 0.607.
For RRIRCRPPRLPRPRPRPMRSPRP, the “shrunken log2 fold change” value was 0.211.
In the case of RRIRNRPPRLPRPRPRPSIDPRP, the “shrunken log2 fold change” value is reported as -0.782.
RRIRHRPPRLPRPRPRPSTWPRP was tested, and the “shrunken log2 fold change” value was -0.674.
RRIRYRPPRLPRPRPRPMTNPRP was tested, and the “shrunken log2 fold change” value was -1.55.
With RRIRERPPRLPRPRPRPWLFPRP the “shrunken log2 fold change” value was -0.0723.
In the case of RRIRFRPPRLPRPRPRPALTPRP, the “shrunken log2 fold change” value is reported as 0.248.
For RRIRCRPPRLPRPRPRPFNTPRP, the “shrunken log2 fold change” value was -0.2.
With RRIRSRPPRLPRPRPRPPLYPRP the “shrunken log2 fold change” value was -0.0605.
RRIRGRPPRLPRPRPRPRREPRP was tested, and the “shrunken log2 fold change” value was 0.381.
In the case of RRIRMRPPRLPRPRPRPKIGPRP, the “shrunken log2 fold change” value is reported as -0.0597.
RRIRDRPPRLPRPRPRPNKSPRP was tested, and the “shrunken log2 fold change” value was -0.534.
With RRIRMRPPRLPRPRPRPCCCPRP the “shrunken log2 fold change” value was 0.0604.
With RRIRLRPPRLPRPRPRPVFHPRP the “shrunken log2 fold change” value was -0.143.
For RRIRIRPPRLPRPRPRPQDHPRP, the “shrunken log2 fold change” value was -0.466.
RRIRHRPPRLPRPRPRPKMTPRP was tested, and the “shrunken log2 fold change” value was -0.519.
RRIRSRPPRLPRPRPRPLMEPRP was tested, and the “shrunken log2 fold change” value was -0.0249.
RRIRVRPPRLPRPRPRPQWMPRP was tested, and the “shrunken log2 fold change” value was -0.105.
RRIRIRPPRLPRPRPRPLIWPRP was tested, and the “shrunken log2 fold change” value was -0.236.
For RRIRQRPPRLPRPRPRPKPNPRP, the “shrunken log2 fold change” value was 0.301.
With RRIRERPPRLPRPRPRPDLEPRP the “shrunken log2 fold change” value was -0.0701.
With RRIRARPPRLPRPRPRPNVMPRP the “shrunken log2 fold change” value was 0.153.
In the case of RRIRGRPPRLPRPRPRPKNQPRP, the “shrunken log2 fold change” value is reported as 0.551.
In the case of RRIRSRPPRLPRPRPRPLSVPRP, the “shrunken log2 fold change” value is reported as -0.0334.
With RRIRDRPPRLPRPRPRPMRSPRP the “shrunken log2 fold change” value was -0.00884.
In the case of RRIRPRPPRLPRPRPRPLFQPRP, the “shrunken log2 fold change” value is reported as -0.0669.
RRIRSRPPRLPRPRPRPEEHPRP was tested, and the “shrunken log2 fold change” value was -0.0107.
RRIRDRPPRLPRPRPRPSHIPRP was tested, and the “shrunken log2 fold change” value was -1.15.
With RRIRWRPPRLPRPRPRPLPRPRP the “shrunken log2 fold change” value was 0.534.
RRIRTRPPRLPRPRPRPIKYPRP was tested, and the “shrunken log2 fold change” value was 4.24.
In the case of RRIRLRPPRLPRPRPRPKARPRP, the “shrunken log2 fold change” value is reported as -0.00543.
With RRIRVRPPRLPRPRPRPRYSPRP the “shrunken log2 fold change” value was -0.911.
In the case of RRIRCRPPRLPRPRPRPCMDPRP, the “shrunken log2 fold change” value is reported as -0.09.
RRIRERPPRLPRPRPRPGYIPRP was tested, and the “shrunken log2 fold change” value was -0.709.
For RRIRSRPPRLPRPRPRPFCFPRP, the “shrunken log2 fold change” value was -0.069.
For RRIRLRPPRLPRPRPRPIASPRP, the “shrunken log2 fold change” value was -0.0599.
For RRIRSRPPRLPRPRPRPQNHPRP, the “shrunken log2 fold change” value was -0.604.
In the case of RRIRGRPPRLPRPRPRPQQSPRP, the “shrunken log2 fold change” value is reported as 0.465.
For RRIRSRPPRLPRPRPRPPGYPRP, the “shrunken log2 fold change” value was 0.0642.
In the case of RRIRWRPPRLPRPRPRPDCPPRP, the “shrunken log2 fold change” value is reported as 0.0548.
RRIRVRPPRLPRPRPRPKVSPRP was tested, and the “shrunken log2 fold change” value was -0.0522.
With RRIRFRPPRLPRPRPRPTMQPRP the “shrunken log2 fold change” value was 0.219.
For RRIRIRPPRLPRPRPRPEDTPRP, the “shrunken log2 fold change” value was 0.0265.
In the case of RRIRHRPPRLPRPRPRPLWAPRP, the “shrunken log2 fold change” value is reported as 0.222.
For RRIRTRPPRLPRPRPRPELIPRP, the “shrunken log2 fold change” value was -0.0864.
In the case of RRIRHRPPRLPRPRPRPNEKPRP, the “shrunken log2 fold change” value is reported as -0.0239.
For RRIRGRPPRLPRPRPRPKCTPRP, the “shrunken log2 fold change” value was 0.978.
With RRIRPRPPRLPRPRPRPVLWPRP the “shrunken log2 fold change” value was 0.374.
With RRIRVRPPRLPRPRPRPVRAPRP the “shrunken log2 fold change” value was 0.616.
In the case of RRIRYRPPRLPRPRPRPTYAPRP, the “shrunken log2 fold change” value is reported as 3.45.
RRIRVRPPRLPRPRPRPFHTPRP was tested, and the “shrunken log2 fold change” value was -1.18.
With RRIRIRPPRLPRPRPRPKCEPRP the “shrunken log2 fold change” value was 0.07.
With RRIRGRPPRLPRPRPRPSNVPRP the “shrunken log2 fold change” value was 0.175.
For RRIRKRPPRLPRPRPRPQDCPRP, the “shrunken log2 fold change” value was -0.104.
With RRIRVRPPRLPRPRPRPMRIPRP the “shrunken log2 fold change” value was 0.218.
In the case of RRIRMRPPRLPRPRPRPAGRPRP, the “shrunken log2 fold change” value is reported as 0.725.
RRIRVRPPRLPRPRPRPIRNPRP was tested, and the “shrunken log2 fold change” value was -0.0718.
With RRIRHRPPRLPRPRPRPWWKPRP the “shrunken log2 fold change” value was -0.0848.
In the case of RRIRARPPRLPRPRPRPWMMPRP, the “shrunken log2 fold change” value is reported as -0.248.
With RRIRGRPPRLPRPRPRPKRDPRP the “shrunken log2 fold change” value was 0.738.
With RRIRKRPPRLPRPRPRPWQRPRP the “shrunken log2 fold change” value was -0.0202.
For RRIRQRPPRLPRPRPRPWAVPRP, the “shrunken log2 fold change” value was 0.066.
In the case of RRIRWRPPRLPRPRPRPGEAPRP, the “shrunken log2 fold change” value is reported as 0.799.
RRIRQRPPRLPRPRPRPHERPRP was tested, and the “shrunken log2 fold change” value was 0.158.
In the case of RRIRIRPPRLPRPRPRPYQQPRP, the “shrunken log2 fold change” value is reported as -0.0163.
For RRIRHRPPRLPRPRPRPRCTPRP, the “shrunken log2 fold change” value was 0.0847.
For RRIRRRPPRLPRPRPRPSMWPRP, the “shrunken log2 fold change” value was 0.168.
RRIRTRPPRLPRPRPRPRNIPRP was tested, and the “shrunken log2 fold change” value was -0.623.
For RRIRYRPPRLPRPRPRPGHHPRP, the “shrunken log2 fold change” value was -0.132.
With RRIRARPPRLPRPRPRPEHLPRP the “shrunken log2 fold change” value was 0.108.
With RRIRFRPPRLPRPRPRPWDPPRP the “shrunken log2 fold change” value was -0.78.
In the case of RRIRLRPPRLPRPRPRPWGDPRP, the “shrunken log2 fold change” value is reported as -0.176.
RRIRVRPPRLPRPRPRPKGAPRP was tested, and the “shrunken log2 fold change” value was 0.553.
For RRIRHRPPRLPRPRPRPTGTPRP, the “shrunken log2 fold change” value was -0.0618.
In the case of RRIRHRPPRLPRPRPRPILQPRP, the “shrunken log2 fold change” value is reported as -0.152.
For RRIRARPPRLPRPRPRPLEWPRP, the “shrunken log2 fold change” value was -0.0062.
With RRIRHRPPRLPRPRPRPVYYPRP the “shrunken log2 fold change” value was -1.02.
With RRIRDRPPRLPRPRPRPGDNPRP the “shrunken log2 fold change” value was 2.29.
With RRIRTRPPRLPRPRPRPMFCPRP the “shrunken log2 fold change” value was -0.628.
With RRIRARPPRLPRPRPRPRHEPRP the “shrunken log2 fold change” value was 0.638.
RRIRARPPRLPRPRPRPPVWPRP was tested, and the “shrunken log2 fold change” value was 0.685.
For RRIRARPPRLPRPRPRPLGPPRP, the “shrunken log2 fold change” value was 0.337.
RRIRWRPPRLPRPRPRPFRVPRP was tested, and the “shrunken log2 fold change” value was -0.0169.
With RRIRERPPRLPRPRPRPAKRPRP the “shrunken log2 fold change” value was 0.0249.
RRIRPRPPRLPRPRPRPRICPRP was tested, and the “shrunken log2 fold change” value was 0.0562.
With RRIRSRPPRLPRPRPRPLLFPRP the “shrunken log2 fold change” value was -0.129.
With RRIRDRPPRLPRPRPRPTRMPRP the “shrunken log2 fold change” value was 0.154.
For RRIRYRPPRLPRPRPRPGHLPRP, the “shrunken log2 fold change” value was -0.0798.
In the case of RRIRCRPPRLPRPRPRPEFKPRP, the “shrunken log2 fold change” value is reported as 0.0244.
In the case of RRIRIRPPRLPRPRPRPVIWPRP, the “shrunken log2 fold change” value is reported as 0.204.
In the case of RRIRLRPPRLPRPRPRPIVCPRP, the “shrunken log2 fold change” value is reported as 0.0348.
RRIRIRPPRLPRPRPRPCVSPRP was tested, and the “shrunken log2 fold change” value was -0.012.
In the case of RRIRNRPPRLPRPRPRPSTRPRP, the “shrunken log2 fold change” value is reported as 0.326.
In the case of RRIRSRPPRLPRPRPRPGNVPRP, the “shrunken log2 fold change” value is reported as -0.0126.
In the case of RRIRARPPRLPRPRPRPRYHPRP, the “shrunken log2 fold change” value is reported as -0.135.
RRIRYRPPRLPRPRPRPFQLPRP was tested, and the “shrunken log2 fold change” value was -0.0518.
For RRIRLRPPRLPRPRPRPFESPRP, the “shrunken log2 fold change” value was -0.168.
For RRIRQRPPRLPRPRPRPCFMPRP, the “shrunken log2 fold change” value was 0.628.
With RRIRWRPPRLPRPRPRPHCKPRP the “shrunken log2 fold change” value was -0.233.
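Also: peptides expressed intracellularly from a pBAD plasmid library in pooled LB shake-flask culture, induced with 0.3% L-arabinose, DNA abundance read by NGS, three biological replicates, DESeq2 with apeglm shrinkage.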
